{"source": "paper PMC4646684", "key": {"[1]": {"target": "soluble form of Fas ligand (mouse (endogenous in primary Balb/cJ bone marrow-derived osteoclast cultures))", "sequence (P41047 101-279)": "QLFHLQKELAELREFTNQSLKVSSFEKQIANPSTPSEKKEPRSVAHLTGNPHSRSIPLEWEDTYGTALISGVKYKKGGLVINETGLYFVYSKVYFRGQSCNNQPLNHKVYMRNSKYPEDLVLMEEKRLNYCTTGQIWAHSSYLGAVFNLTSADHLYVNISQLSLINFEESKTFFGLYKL"}, "[2]": {"target": "soluble form of Fas ligand (mouse (endogenous in primary Balb/cJ bone marrow-derived osteoclast cultures))", "remark": "listed apart in the source"}}, "data": [{"substance": "Osteoprotegerin (from UniProt O08712 22-401) (receptor)", "values": [{"measurement": "concentration of soluble FasL in the osteoclast culture medium by ELISA, 24 h with OPG at 0, 20, 40, 80 ng/mL (69.44, 54.51, 41.71, 4.59 pg/mL; falls with the dose)", "setting": "[1]", "result": 69.4, "unit": "pg/mL"}, {"measurement": "percentage of apoptotic osteoclasts (TUNEL-derived method), 24 h with OPG at 0, 20, 40, 80 ng/mL (22.7%, 34.8%, 43.5%, 51.3%)", "setting": "[2]", "result": 51.3, "unit": "%"}]}]}
